In the DeepSol protein solubility set:

experiment: soluble on expression in E. coli; label from the status in PepcDB or PDB records

Sequence | soluble on expression in E. coli
MSLELTVFSIGDWGEKTECLVNVTTKMGSLESAMNPKFIISVGDNFYQRGVKSVEDAAWTEILEEPFGKLSKHLKVHSCLGDHDWRGSTTAQIDRTNYANNTRWYLPGYWWYEKVTFTSEVSLPSLFEKSGLGEISANNSFHFNSSKTENSTSCEIDCLDEIVDNLNTMVNRNNSWNEDLSYKTSISEYFSEKQVNSTAVFIYIDSWTLTQDPFKKTSISYKYSQLEFIEQTLKAAVFENVDWIILVTHYSIYSSGLHGPHTRLASILMPLIKKYRVDFIISGHDHHSEILVPEDFNSYFQIVGASSKPRTSFGATDENSIFKSNTCSFASFTFSKDIAVSRIFSINSSLFSYFKRSNKFEREGHHHHHH | not soluble
MAKSLRASSHLNAKSVKRRGVFQKAVDAREQRISDKLKEDLLKQKLEDLKKKEEQGIDMDVDEKKSNEEAPRKKISTSGWRDGRHHTYKKAKLMKQSKKKTSFTRF | soluble
MGSDKIHHHHHHMAEPSGLLKKGEKMDSMLCTKRTLLSDEFQHWARLFMKTGKLHRKFWEWCFIAQALKEHDMLAPGRIGLGFGVGEEPLSSCFASFGASILATDLDLQNSSVAGWTKTSQHADNKGKLNKLGICPGWEFENLVEFEFANMNSIPKRYTGKFDFVWSSCSLEHLGSIEKGVTFILNSINCLKPGGVAVHTTEFNVSPNSDTIETGPTVLFRRKEIEDIIERVRSFGCRAHINWDHGDLPEDYYIDIPPYSHNPHLKLRISKYVVTSIGLVISK | not soluble
TDQGSTGIYYISIEGLVYPIRLEKEYINSFSLSPDEQHFIASVTKPDRPSELYSIPLGQEEKQLTGANDKFVREHTISIPEEIQYATEDGVMVNGWLMRPAQMEGETTYPLILNIHGGPHMMYGHTYFHEFQVLAAKGYAVVYINPRGSHGYGQEFVNAVRGDYGGKDYDDVMQAVDEAIKRDPHIDPKRLGVTGGSYGGFMTNWIVGQTNRFKAAVTQRSISNWISFHGVSDIGYFFTDWQLEHDMFEDTEKLWDRSPLKYAANVETPLLILHGERDDRCPIEQAEQLFIALKKMGKETKLVRFPNASHNLSRTGHPRQRIKRLNYISSWFDQHL | not soluble
MAHHHHHHMLQWVVKEVEGPFGNIATIHWAVPEGQDDGESSDNTAESQKLHHKVGQGGKVQPELQHLLEDAEDQLGAVLWNSNSVAMGHLQKHVLQNHDKACHVVELGAGVGCLGIGLAMAGARVVITDMKELVPLMEKNIELNKERILSRSNGKGSCVAMTWRWGPPPLVKQKHNAKRVKINNARQHSSNADVPSAQNERGRSPYLLPSPAFVEMQRLLDHVDLVVLCDALYGNPKSWPQLLYTLSEILAANPRCEVINFCEQRVDDVEGDFLNLLQQENAKLPPPANSAVGPEGNETMEEALLRMRGSYKWSTSTEVVGEGPSDLGMPVRVTRISWVHRSGKWGTGASTASRDVVVDGADLGR | not soluble
MSSGLYSMEKKEFDKVLDLERVKPYGDTMNDGKVQLSFTLPLKNNERSAEAAKQIALKMGLEEPSVVMQQSLDEEFTFFVVYGNFVQSVNYNEIHVEAVNSEILSMEETDEYIKENIGRKIVVVGASTGTDAHTVGIDAIMNMKGYAGHYGLERYEMIDAYNLGSQVANEDFIKKAVELEADVLLVSQTVTQKNVHIQNMTHLIELLEAEGLRDRFVLLCGGPRINNEIAKELGYDAGFGPGRFADDVATFAVKTLNDRMNS | soluble
MGSDKIHHHHHHMALIIAGERSGVGKTTTTLTLLAALKARQASVQSFKVGPDYIDPMFHRFVTGRDCRNLDPILTDEDYVQHCFQQHSQTADYTLVEGVMGLFDGLTGKTDTASTAHIARILNLPILLVLNCSSTARSIAAIAYGYQNFDSRLKIAGLVLNRVGSDRHLELLKDALEPLEIPILGVLRRQDEIQIPDRHLGLIPTSELPHLQSVIDRLAVLGQQCFDWNRLEPLLSNSDLNSTAFKSTTPSISLKSSVPIAIARDRAFNFYYADNFDLLRAAGAELIEWSPLQDRQLPAGVQGLYLGGGFPEVFAAELSDNLLARQAVQTAITQGIPCYAECGGLMYLCQHIIDFEQTQYPMVGAIAATAQMGSRLTLGYREATAQQASPLLQKGQVVWGHEFHRSSLREPIAQPLFQLQNFDGSLHYGEGYSQPNLHASYLHLHFGGKPWLIQNFLQACQQATALSR | not soluble
MGSSHHHHHHMQPEHVKERYKNFLNQHVGPDMSVQRCNSEIGPNNRKITLSGTDNGCKPVNTFILANKRLIKTVCGRAGSPQGNMVRSNQPFPVVKCVLNNGERHPYCEYRGTRSTRYIVLKCEEGWPVHYHEDEVNVG | soluble
GHMSAHVQQDKYETNVSYKKLNQLAPYFKGFDGSFVLYNEREQAYSIYNEPESKQRYSPNSTYKIYLALMAFDQNLLSLNHTEQQWDKHQYPFKEWNQDQNLNSSMKYSVNWYYENLNKHLRQDEVKSYLDLIEYGNEEISGNENYWNESSLKISAIEQVNLLKNMKQHNMHFDNKAIEKVENSMTLKQKDTYKYVGKTGTGIVNHKEANGWFVGYVETKDNTYYFATHLKGEDNANGEKAQQISERILKEMELI | soluble
MSLKSLEGSWCLVLGASSGIGRAIALGLAREGVHVAGVHFDTAARAEEVEALVEEIRSLGVEARFFNTNAASKATRAELVPQLAELTGANGGIRILVHSLAFGTLVPFTPREGWDRPISVRQLEMTLDVMAHSLVYWTQDLLAAGLLRSGSKVYAMTSAGTSQHLPSYGAVSAAKSALESHVRQLAAELATSGIAVNALRAGTTVTPALQRIPEHAGYIERAAENNPHGRLTRPDDVADAVALLSRTESSWLTGNTIGIDGGELHEGHHHHHH | soluble
MVSKLVKIEPKFKLIEKDGKGEYFIAKYNILPENLLVYGPEQELKKINTIQTNVKEFDTRTLFVSDYLEVVPPNPLVMFEKSHVVVNIYLNKLEHHHHHH | not soluble
SETESDAEVACDLSNMEITEELRQYFAETERHREELLRRQQLDAERLNSYVNAEHDLYCNTRRSVEAPAERPGERRQAEMKRLYWDSAAKIQAMEANVQLSFDKHCDPKQPNYWPVIPPKF | soluble
ITERRQRQQRIEALHDTTRELMHVESREAAAELVVETARDLLGLPLSAVFLADESADALRPTAVTDQAQAIIDDHPTFSEGDSLVWEVFDSGEQRVFNDVSTHPNRYNPDTDVCSELLIPLGDHGVLIAASTDAAAFEDASVSLMRTLAANTEEALSRLDRQQELRTLTER | not soluble
MAHHHHHHMAKTVDNAALLAEIDQLRRLIAEKEALITPDGGSLSKKSKKKSQMNMVETEPVQGCRDFPPETMRLRKYLFDVFHSTARKFGFEEYDSPVLESEELYIRKAGEEITEQMFNFITKGGHRVALRPEMTPSLARQLLAKGRSLLLPAKWYSIPQCWRYEAITRGRRREHYQWNMDIIGVKSVSSEVELVCAACTAMQSLGLSSKDVGVKINSRKILQTVVEQAGVSADKFAPVCVIVDKMEKLPREEVVAQLAAIGLESNVVDAITSTLSLKTIDEIAQRIGEEHEAVRELRDFITQIEAYGFGDWVIFDASVVRGLAYYTGIVFEGFDRDGNFRALCGGGRYDNLLTTYGSPTAVPCVGFGFGDCVIVELLNEKKLLPELHHVVDDLVIPFDETMRPHALSILRRLRDAGRSADIVFDKKKVVQAFNYADRIGALRAVLVAPDEWARGEVRVKMLREGAGREEGANERGIVLPVDKIV | not soluble
MGSDKIHHHHHHMEMFAQFSVEGQRMYGMLHTPDGSATGQQAPPQGWPSVVIVHGFTGDKVSSHRLLVLLARRLTAAGIAALRFDCRGSGESQGDFSEMTVGREVQDVEAAFDYVRHQPGLDPERVMLLGYSMGGLVSALAAEKVRPHRFALWSPALPELWLRHLRGGLLPPVISDYGGWPLGRAFLQEVVQTRPLEAAARWGGVAHVFHGDRDQTCPVEWGVRTPKPCAATPPRFPARGTRMTRSNR | not soluble
MTGVVTASKGLNVRKEANTSSQIIGILNSGESVEIIGEENGFYKITYKGQEAYASKNYINIFDGNSLEHHHHHH | not soluble
MKKLTFEIRSPAHQQNAIHAVQQILPDPTKPIVVTIQERNRSLDQNRKLWACLGDVSRQVEWHGRWLDAESWKCVFTAALKQQDVVPNLAGNGFVVIGQSTSRMRVGEFAELLELIQAFGTERGVKWSDEARLALEWKARWGDRAA | soluble
MGRVLDRIEVVAEEIRGQAVQSEADCRLTDAAAGLLRDSGAIRLLQPRLYGGYEVHPREFAETVMGVAALDGASGWVTGIVGVHPWELAFADPQVQEEIWGEDNDTWMASPYAPMGVATPVDGGYVLKGRWSFSSGTDHCQWAFLGAMVGDGEGGIATPSSLHVILPRTDYQIVEDTWDVIGLRGTGSKDLIVDGAFVPGYRTLNAAKVMDGRAQKEAGRPEPLFNMPYSCMFPLGITAAVIGITEGALACHIAVQKDRVAITGQKIKEDPYVLSAIGESAAEINASRVSLIETADRFYDKVDAGKEITFEERAIGRRTQIAAAWRAVRAADEIFARAGGGALHYKTPMQRFWRDAHAGLAHAVHVPGPTNHASALTQLGGEPQGMMRAMI | soluble
MAFNQRTVVMIGPGEHYVTAKNEVIKTLLGSCVAVCLYDPKAQVIGMNHFLLAADRRKFTHFLDSRAGYYGVHAMEILINAMLKRGAQRKYLQSKIFGGANVLSLCADNILNHYDIGGMNIDFVRHFLQRERIPIISEDIGGHCGRVIYFDPTDYSVYRSLIEHKYEEIASLQDEEYRYFNQASEDIHSSGVPVVIWSD | soluble
MAAGIVASRRLRDLLTRRLTGSNYPGLSISLRLTGSSAQEEASGVALGEAPDHSYESLRVTSAQKHVLHVQLNRPNKRNAMNKVFWREMVECFNKISRDADCRAVVISGAGKMFTAGIDLMDMASDILQPKGDDVARISWYLRDIITRYQETFNVIERCPKPVIAAVHGGCIGGGVDLVTACDIRYCAQDAFFQVKEVDVGLAADVGTLQRLPKVIGNQSLVNELAFTARKMMADEALGSGLVSRVFPDKEVMLDAALALAAEISSKSPVAVQSTKVNLLYSRDHSVAESLNYVASWNMSMLQTQDLVKSVQATTENKELKTVTFSKL | soluble
MQIQKSFKGQSPYGKLYLVATPIGNLDDMTFRAIQTLKEVDWIAAEDTRNTGLLLKHFDISTKQISFHEHNAKEKIPDLIGFLKAGQSIAQVSDAGLPSISDPGHDLVKAAIEEEIAVVTVPGASAGISALIASGLAPQPHIFYGFLPRKSGQQKQFFGLKKDYPETQIFYESPHRVADTLENMLEVYGDRSVVLVRELTKIYEEYQRGTISELLESIAETPLKGECLLIVEGASQGVEEKDEEDLFVEIQTRIQQGVKKNQAIKEVAKIYQWNKSQLYAAYHDWEEKQ | not soluble
LSWKRCAGCGGKIADRFLLYAMDSYWHSRCLKCSSCQAQLGDIGTSSYTKSGMILCRNDYIRLFGNSGACSACGQSIPASELVMRAQGNVYHLKCFTCSTCRNRLVPGDRFHYINGSLFCEHDRPTALINGHLNSGGSGGSGGSGGDVMVVGEPTLMGGEFGDEDERLITRLENTQFDAANGIDDETRESGSIEF | soluble
MPIPLYLQDWWLDAVCGFDEWMAFVLEEEGTVSGVMPCYMPVPGHISMPPFTQFLGSYSFIGINEDSTTSFRAHRRVHDMLRSMLPPHKSFMVQYSKDFTDWLPYYWQGYSQTTRYTYRIDLSPGIDVVRMAIRPDAMKKIRKAERDGLRCTSATVDDLLRLCRISMSRQEAKGFAAETLQRLAEVAIERHAGEIVGCEDSEGRLLAAVFLAHDHNTAYTIASGQIREGQGRNAGAFVLYEAIWRACEMEGIHTFDFEGSMLEGIEGFFRSFGGIQTPYFRLSKGRIGLYGRLRRKWRAFHDTGQQKQV | not soluble
